Results reported in the supplement of paper PMC10126150.
± gives the standard deviation of the averaged measurements.

system: ATP; experiment: switch fluorescence ratio, 500 uM ATP over buffer (Cy3 cluster intensity, sum of 5 cycles each) (fold (ratio)); higher = stronger signal-on switching upon ATP binding; sequences stand for … in TCGTCGGCAGCGTCAGATGTGTATAAGAGACAGTTTTTTTTTTTTTTTTTTTTTTTTT…TC; details: aptamer strand: ATP DNA aptamer (quencher-CACCTGGGGGAGTATTGCGGAGGAAGG + anchor), 100 nM annealed; ATP concentration: 500 uM
How it was run: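 The fluorescence ratio divides summed target-cycle Cy3 intensity by summed buffer-cycle Cy3 intensity for each cluster and is averaged per switch-domain sequence. Cy3-labelled switching-strand clusters on a modified Illumina MiSeq flow-cell were annealed to 100 nM quencher-labelled ATP aptamer, then imaged in selection buffer and again after 15 min with 500 uM ATP at 22 °C. Five such cycles were run, with NaOH stripping and re-annealing between them, and clusters outside 100-1000 RFU were excluded.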
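Note: ATP exposure 15 min at 22 °C before imaging.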

| Sequence | switch fluorescence ratio |
| --- | --- |
| ACATTCTACG | 1.25 ± 0.017 |
| ACATTTGACG | 1.05 ± 0.017 |
| ACATTTGGGA | 0.964 ± 0.026 |
| ACATTTGTGG | 1.01 ± 0.021 |
| ACCAAATAAG | 1.02 ± 0.023 |
| ACCAATAGGA | 1.01 ± 0.021 |
| ACCAATATAT | 0.996 ± 0.033 |
| ACCACGAATG | 1.025 ± 0.0051 |
| ACCACGCGGG | 1.01 ± 0.066 |
| ACCAGATCAC | 1.04 ± 0.019 |
| ACCAGCCGGG | 1.09 ± 0.062 |
| ACCAGGGCAT | 1.067 ± 0.0076 |
| ACCAGGTCTA | 1.07 ± 0.017 |
| ACCAGGTGGG | 2.75 ± 0.75 |
| ACCAGTAGAC | 1.038 ± 0.0074 |
| ACCAGTCTCG | 1.07 ± 0.08 |
| ACCAGTGAGT | 0.969 ± 0.011 |
| ACCAGTGCTG | 1 ± 0.04 |
| ACCATAATGG | 1.021 ± 0.01 |
| ACCATACTGC | 1.23 ± 0.12 |
| ACCATCGATA | 1.03 ± 0.024 |
| ACCATGCGTC | 0.99 ± 0.031 |
| ACCCAAAATT | 1.05 ± 0.033 |
| ACCCAATTTT | 1.03 ± 0.036 |
| ACCCAGCGCT | 1.04 ± 0.023 |

| Sequence | switch fluorescence ratio |
| --- | --- |
| ACCCCGGGCA | 1.08 ± 0.018 |
| ACCCCTTGAT | 1.04 ± 0.023 |
| ACCCGAGGTC | 1.09 ± 0.015 |
| ACCCGATTGC | 1.29 ± 0.044 |
| ACCCGCCAGC | 3.96 ± 1.6 |
| ACCCTCAAAA | 1.31 ± 0.031 |
| ACCCTGCGAG | 1.05 ± 0.032 |
| ACCGAGATCA | 1.03 ± 0.014 |
| ACCGAGGAGG | 0.961 ± 0.026 |
| ACCGATTGTT | 1.017 ± 0.0016 |
| ACCGCGAAGG | 1.025 ± 0.0058 |
| ACCGCGCGAC | 2.49 ± 0.053 |
| ACCGGGATGC | 3.66 ± 0.26 |
| ACCGGGCTGC | 1.06 ± 0.024 |
| ACCGGTTAAC | 1.02 ± 0.035 |
| ACCGGTTATA | 1.03 ± 0.038 |
| ACCGGTTTTC | 0.984 ± 0.023 |
| ACCGTATGAC | 1.05 ± 0.068 |
| ACCGTATGGC | 1.02 ± 0.023 |
| ACCGTCATTT | 1.05 ± 0.046 |
| ACCGTCTCAG | 1.05 ± 0.026 |
| ACCGTTGTTC | 1.04 ± 0.02 |
| ACCGTTTCGT | 0.94 ± 0.029 |
| ACCTAAAATA | 1.07 ± 0.085 |
| ACCTAACAGG | 0.9728 ± 0.0095 |

| Sequence | switch fluorescence ratio |
| --- | --- |
| ACCTCCCGTT | 1.12 ± 0.064 |
| ACCTCGGACC | 1.09 ± 0.022 |
| ACCTCTTGGG | 0.9405 ± 0.0011 |
| ACCTGGCATC | 1.122 ± 0.0016 |
| ACCTGTTGTT | 0.991 ± 0.016 |
| ACCTTGGCTC | 1.1 ± 0.06 |
| ACCTTGGTTG | 0.9609 ± 0.0054 |
| ACCTTTACGT | 1.17 ± 0.033 |
| ACCTTTAGTG | 1.03 ± 0.019 |
| ACCTTTTTCA | 1.021 ± 0.0084 |
| ACGAACGTTG | 1.26 ± 0.089 |
| ACGAATGTGC | 1.022 ± 0.0097 |
| ACGAATGTTG | 0.9918 ± 0.0029 |
| ACGAATTCTG | 1.02 ± 0.042 |
| ACGACCTGCA | 1.51 ± 0.075 |
| ACGACTAGGT | 1.102 ± 0.008 |
| ACGACTGTTA | 1.04 ± 0.02 |
| ACGAGGATTG | 1.042 ± 0.0021 |
| ACGAGGGCGT | 1.03 ± 0.017 |
| ACGAGGGGGA | 1.05 ± 0.016 |
| ACGAGGTAAG | 1.079 ± 0.0031 |
| ACGAGGTAGA | 1.02 ± 0.021 |
| ACGATAGTTA | 0.992 ± 0.01 |
| ACGATGGTTG | 0.9729 ± 0.0095 |
| ACGATTGTCT | 0.973 ± 0.037 |

| Sequence | switch fluorescence ratio |
| --- | --- |
| ACGCAATGAT | 5.18 ± 0.069 |
| ACGCACGATT | 1.37 ± 0.1 |
| ACGCAGAACG | 1.36 ± 0.074 |
| ACGCATTTGG | 1.1159 ± 0.00088 |
| ACGCCGCGTT | 1.42 ± 0.032 |
| ACGCCGTGTG | 0.999 ± 0.022 |
| ACGCGATAAC | 4.27 ± 0.27 |
| ACGCGGGGAG | 1.01 ± 0.034 |
| ACGCGGTTTT | 1.02 ± 0.027 |
| ACGCTGAGCA | 1.033 ± 0.008 |
| ACGCTGGAAG | 0.9892 ± 0.0067 |
| ACGCTGGGGG | 1.06 ± 0.041 |
| ACGCTTACTA | 1.44 ± 0.054 |
| ACGCTTGGGA | 0.998 ± 0.048 |
| ACGCTTTACC | 1.89 ± 0.11 |
| ACGCTTTATT | 1.08 ± 0.032 |
| ACGGAATTTG | 1.04 ± 0.019 |
| ACGGACGCAA | 3.95 ± 0.66 |
| ACGGAGAAAC | 1.35 ± 0.11 |
| ACGGAGCGGG | 1.35 ± 0.25 |
| ACGGAGGATA | 1.11 ± 0.014 |
| ACGGAGGGGG | 0.96 ± 0.042 |
| ACGGATGGGG | 0.997 ± 0.019 |
| ACGGATGTTG | 1.01 ± 0.059 |
| ACGGCTCAT | 1.01 ± 0.037 |
